Substrate in this data set: CCn1c(=NN=c2sc3cc(S(=O)(=O)O)ccc3n2CC)sc2cc(S(=O)(=O)O)ccc21
Kind of data set: purified protein. It counts as biochemical, Aquifex aeolicus. The settings on record: pH 4, 40 °C.

Setting [1] is: 2F4-loop 5 (Met-loop cut to five residues).

B1: McoA (wild type) (Aquifex aeolicus VF5; F55S/I199T/I441L/M449T/P58S/R471G) (protein)
chain: LSKQSLNIPGYSLFSDGQRVSITAKWTTLEVIPGKSTDMLVYEIDNEYNPVIFLRKGQTFSADFVNNSGEDSIIHWHGFRAPWKSDGHPYYAVKDGETYSYPDFTIIDRSGTYFYHPHPHGRTGYQVYYGLAGMIIIEDEDEDNLKQALDLEYGVTDIPLIIQDKTFDSSGQLVYNPMGHMGFWGDTILVNLTPNPYMDVERKIYRFRILNGSNARPYRLALLRGNQRMRFWVIGVEGGLLDTPKEVNEILVAPGERIDILVDFRDASVNDVIKLYNFPHNLIGMGMIGMRMGMGMERGMGMGNGMNMDMGMADNSEFEVMEFRVTKDSAYDKSIPQRLSEVTPINTDGAQVQRITLGMRRMVFTINGETWEDGYANPQDINNPKVLFEQNNGDVVILEYVNNTGTYHPMHIHGFQFQVLERSLGPLGATDLGWKDTVIVAPMETVRIAVDMSHPYNEHQIYLLHCHILEHHDEGMMVNYRVNA
notes: 43-residue N-terminal Tat signal peptide removed in 2B3wsp and the shuffling parents (stated for wild type); expressed in E. coli Tuner delta-cueO from pET-21a(+); purified, Cu-loaded in vitro; monomer
Turning to B1, under “evolved variant 2F4”, the Km (commonly the concentration of substrate that gives half-maximal velocity) stood at 1500 ± 400 µM and the kcat – broadly, the maximal rate divided by the concentration of active sites – was found to be 273 ± 9 s⁻¹.

B2: McoA (wild type) (Aquifex aeolicus VF5; I441L) (protein)
chain: LSKQSLNIPGYFLFPDGQRVSITAKWTTLEVIPGKSTDMLVYEIDNEYNPVIFLRKGQTFSADFVNNSGEDSIIHWHGFRAPWKSDGHPYYAVKDGETYSYPDFTIIDRSGTYFYHPHPHGRTGYQVYYGLAGMIIIEDEDEDNLKQALDLEYGVIDIPLIIQDKTFDSSGQLVYNPMGHMGFWGDTILVNLTPNPYMDVERKIYRFRILNGSNARPYRLALLRGNQRMRFWVIGVEGGLLDTPKEVNEILVAPGERIDILVDFRDASVNDVIKLYNFPHNLIGMGMIGMRMGMGMERGMGMGNGMNMDMGMADNSEFEVMEFRVTKDSAYDKSIPQRLSEVTPINTDGAQVQRITLGMRRMVFTINGETWEDGYANPQDINNPKVLFEQNNGDVVILEYVNNTGMYHPMHIHGFQFQVLERSLGPLRATDLGWKDTVIVAPMETVRIAVDMSHPYNEHQIYLLHCHILEHHDEGMMVNYRVNA
notes: as for B1
With B2, where the note is “wild-type background”, the Km came to 1500 ± 200 µM and the kcat worked out at 79 ± 5 s⁻¹.

B3: McoA (wild type) (Aquifex aeolicus VF5; P58S) (protein)
chain: LSKQSLNIPGYFLFSDGQRVSITAKWTTLEVIPGKSTDMLVYEIDNEYNPVIFLRKGQTFSADFVNNSGEDSIIHWHGFRAPWKSDGHPYYAVKDGETYSYPDFTIIDRSGTYFYHPHPHGRTGYQVYYGLAGMIIIEDEDEDNLKQALDLEYGVIDIPLIIQDKTFDSSGQLVYNPMGHMGFWGDTILVNLTPNPYMDVERKIYRFRILNGSNARPYRLALLRGNQRMRFWVIGVEGGLLDTPKEVNEILVAPGERIDILVDFRDASVNDVIKLYNFPHNLIGMGMIGMRMGMGMERGMGMGNGMNMDMGMADNSEFEVMEFRVTKDSAYDKSIPQRLSEVTPINTDGAQVQRITLGMRRMVFTINGETWEDGYANPQDINNPKVLFEQNNGDVVIIEYVNNTGMYHPMHIHGFQFQVLERSLGPLRATDLGWKDTVIVAPMETVRIAVDMSHPYNEHQIYLLHCHILEHHDEGMMVNYRVNA
notes: as for B1
B3: where the note is “wild-type background”, the Michaelis constant (Km) was determined as 2500 ± 200 µM and the kcat turned out to be 75 ± 3 s⁻¹.

B4: McoA (wild type) (Aquifex aeolicus VF5; R471G) (protein)
chain: LSKQSLNIPGYFLFPDGQRVSITAKWTTLEVIPGKSTDMLVYEIDNEYNPVIFLRKGQTFSADFVNNSGEDSIIHWHGFRAPWKSDGHPYYAVKDGETYSYPDFTIIDRSGTYFYHPHPHGRTGYQVYYGLAGMIIIEDEDEDNLKQALDLEYGVIDIPLIIQDKTFDSSGQLVYNPMGHMGFWGDTILVNLTPNPYMDVERKIYRFRILNGSNARPYRLALLRGNQRMRFWVIGVEGGLLDTPKEVNEILVAPGERIDILVDFRDASVNDVIKLYNFPHNLIGMGMIGMRMGMGMERGMGMGNGMNMDMGMADNSEFEVMEFRVTKDSAYDKSIPQRLSEVTPINTDGAQVQRITLGMRRMVFTINGETWEDGYANPQDINNPKVLFEQNNGDVVIIEYVNNTGMYHPMHIHGFQFQVLERSLGPLGATDLGWKDTVIVAPMETVRIAVDMSHPYNEHQIYLLHCHILEHHDEGMMVNYRVNA
notes: as for B1
Turning to B4, for the setting “wild-type background”, the Km was determined as 2300 ± 200 µM and the kcat came out at 98 ± 4 s⁻¹.

B5: McoA (wild type) (Aquifex aeolicus VF5; F55S/I199T/I441L/M449T/P58S) (protein)
chain: LSKQSLNIPGYSLFSDGQRVSITAKWTTLEVIPGKSTDMLVYEIDNEYNPVIFLRKGQTFSADFVNNSGEDSIIHWHGFRAPWKSDGHPYYAVKDGETYSYPDFTIIDRSGTYFYHPHPHGRTGYQVYYGLAGMIIIEDEDEDNLKQALDLEYGVTDIPLIIQDKTFDSSGQLVYNPMGHMGFWGDTILVNLTPNPYMDVERKIYRFRILNGSNARPYRLALLRGNQRMRFWVIGVEGGLLDTPKEVNEILVAPGERIDILVDFRDASVNDVIKLYNFPHNLIGMGMIGMRMGMGMERGMGMGNGMNMDMGMADNSEFEVMEFRVTKDSAYDKSIPQRLSEVTPINTDGAQVQRITLGMRRMVFTINGETWEDGYANPQDINNPKVLFEQNNGDVVILEYVNNTGTYHPMHIHGFQFQVLERSLGPLRATDLGWKDTVIVAPMETVRIAVDMSHPYNEHQIYLLHCHILEHHDEGMMVNYRVNA
notes: as for B1
B5: under “reversion G471R in 2F4”, the Km was 6000 ± 1000 µM and the kcat was 235 ± 9 s⁻¹.

B6: McoA (wild type) (Aquifex aeolicus VF5; I199T) (protein)
chain: LSKQSLNIPGYFLFPDGQRVSITAKWTTLEVIPGKSTDMLVYEIDNEYNPVIFLRKGQTFSADFVNNSGEDSIIHWHGFRAPWKSDGHPYYAVKDGETYSYPDFTIIDRSGTYFYHPHPHGRTGYQVYYGLAGMIIIEDEDEDNLKQALDLEYGVTDIPLIIQDKTFDSSGQLVYNPMGHMGFWGDTILVNLTPNPYMDVERKIYRFRILNGSNARPYRLALLRGNQRMRFWVIGVEGGLLDTPKEVNEILVAPGERIDILVDFRDASVNDVIKLYNFPHNLIGMGMIGMRMGMGMERGMGMGNGMNMDMGMADNSEFEVMEFRVTKDSAYDKSIPQRLSEVTPINTDGAQVQRITLGMRRMVFTINGETWEDGYANPQDINNPKVLFEQNNGDVVIIEYVNNTGMYHPMHIHGFQFQVLERSLGPLRATDLGWKDTVIVAPMETVRIAVDMSHPYNEHQIYLLHCHILEHHDEGMMVNYRVNA
notes: as for B1
For the protein B6, under “wild-type background”, the Km came to 900 ± 200 µM and the kcat was 27 ± 5 s⁻¹.

B7: McoA (wild type) (Aquifex aeolicus VF5; F55S) (protein)
chain: LSKQSLNIPGYSLFPDGQRVSITAKWTTLEVIPGKSTDMLVYEIDNEYNPVIFLRKGQTFSADFVNNSGEDSIIHWHGFRAPWKSDGHPYYAVKDGETYSYPDFTIIDRSGTYFYHPHPHGRTGYQVYYGLAGMIIIEDEDEDNLKQALDLEYGVIDIPLIIQDKTFDSSGQLVYNPMGHMGFWGDTILVNLTPNPYMDVERKIYRFRILNGSNARPYRLALLRGNQRMRFWVIGVEGGLLDTPKEVNEILVAPGERIDILVDFRDASVNDVIKLYNFPHNLIGMGMIGMRMGMGMERGMGMGNGMNMDMGMADNSEFEVMEFRVTKDSAYDKSIPQRLSEVTPINTDGAQVQRITLGMRRMVFTINGETWEDGYANPQDINNPKVLFEQNNGDVVIIEYVNNTGMYHPMHIHGFQFQVLERSLGPLRATDLGWKDTVIVAPMETVRIAVDMSHPYNEHQIYLLHCHILEHHDEGMMVNYRVNA
notes: as for B1
For the protein B7, under “wild-type background”, the Km came out at 2400 ± 400 µM and the kcat is 67 ± 4 s⁻¹.

B8: McoA (wild type) (Aquifex aeolicus VF5) (protein)
chain: LSKQSLNIPGYFLFPDGQRVSITAKWTTLEVIPGKSTDMLVYEIDNEYNPVIFLRKGQTFSADFVNNSGEDSIIHWHGFRAPWKSDGHPYYAVKDGETYSYPDFTIIDRSGTYFYHPHPHGRTGYQVYYGLAGMIIIEDEDEDNLKQALDLEYGVIDIPLIIQDKTFDSSGQLVYNPMGHMGFWGDTILVNLTPNPYMDVERKIYRFRILNGSNARPYRLALLRGNQRMRFWVIGVEGGLLDTPKEVNEILVAPGERIDILVDFRDASVNDVIKLYNFPHNLIGMGMIGMRMGMGMERGMGMGNGMNMDMGMADNSEFEVMEFRVTKDSAYDKSIPQRLSEVTPINTDGAQVQRITLGMRRMVFTINGETWEDGYANPQDINNPKVLFEQNNGDVVIIEYVNNTGMYHPMHIHGFQFQVLERSLGPLRATDLGWKDTVIVAPMETVRIAVDMSHPYNEHQIYLLHCHILEHHDEGMMVNYRVNA
notes: as for B1
As for B8, the Km came to 1300 ± 200 µM and the kcat is 25 ± 3 s⁻¹.

B9: McoA (wild type) (Aquifex aeolicus VF5; F55S/I199T/I441L/P58S/R471G) (protein)
chain: LSKQSLNIPGYSLFSDGQRVSITAKWTTLEVIPGKSTDMLVYEIDNEYNPVIFLRKGQTFSADFVNNSGEDSIIHWHGFRAPWKSDGHPYYAVKDGETYSYPDFTIIDRSGTYFYHPHPHGRTGYQVYYGLAGMIIIEDEDEDNLKQALDLEYGVTDIPLIIQDKTFDSSGQLVYNPMGHMGFWGDTILVNLTPNPYMDVERKIYRFRILNGSNARPYRLALLRGNQRMRFWVIGVEGGLLDTPKEVNEILVAPGERIDILVDFRDASVNDVIKLYNFPHNLIGMGMIGMRMGMGMERGMGMGNGMNMDMGMADNSEFEVMEFRVTKDSAYDKSIPQRLSEVTPINTDGAQVQRITLGMRRMVFTINGETWEDGYANPQDINNPKVLFEQNNGDVVILEYVNNTGMYHPMHIHGFQFQVLERSLGPLGATDLGWKDTVIVAPMETVRIAVDMSHPYNEHQIYLLHCHILEHHDEGMMVNYRVNA
notes: as for B1
B9: under “reversion T449M in 2F4”, the Km stood at 3100 ± 900 µM and the kcat worked out at 99 ± 8 s⁻¹.

B10: McoA (wild type) (Aquifex aeolicus VF5; M449T) (protein)
chain: LSKQSLNIPGYFLFPDGQRVSITAKWTTLEVIPGKSTDMLVYEIDNEYNPVIFLRKGQTFSADFVNNSGEDSIIHWHGFRAPWKSDGHPYYAVKDGETYSYPDFTIIDRSGTYFYHPHPHGRTGYQVYYGLAGMIIIEDEDEDNLKQALDLEYGVIDIPLIIQDKTFDSSGQLVYNPMGHMGFWGDTILVNLTPNPYMDVERKIYRFRILNGSNARPYRLALLRGNQRMRFWVIGVEGGLLDTPKEVNEILVAPGERIDILVDFRDASVNDVIKLYNFPHNLIGMGMIGMRMGMGMERGMGMGNGMNMDMGMADNSEFEVMEFRVTKDSAYDKSIPQRLSEVTPINTDGAQVQRITLGMRRMVFTINGETWEDGYANPQDINNPKVLFEQNNGDVVIIEYVNNTGTYHPMHIHGFQFQVLERSLGPLRATDLGWKDTVIVAPMETVRIAVDMSHPYNEHQIYLLHCHILEHHDEGMMVNYRVNA
notes: as for B1
On to B10, for which, for the setting “wild-type background”, the Km came out at 1000 ± 100 µM and the kcat amounted to 27 ± 1 s⁻¹.

B11: McoA (wild type) (Aquifex aeolicus VF5; DEL329-352/F55S/I199T/I441L/M449T/P58S/R471G) (protein)
chain: LSKQSLNIPGYSLFSDGQRVSITAKWTTLEVIPGKSTDMLVYEIDNEYNPVIFLRKGQTFSADFVNNSGEDSIIHWHGFRAPWKSDGHPYYAVKDGETYSYPDFTIIDRSGTYFYHPHPHGRTGYQVYYGLAGMIIIEDEDEDNLKQALDLEYGVTDIPLIIQDKTFDSSGQLVYNPMGHMGFWGDTILVNLTPNPYMDVERKIYRFRILNGSNARPYRLALLRGNQRMRFWVIGVEGGLLDTPKEVNEILVAPGERIDILVDFRDASVNDVIKLYNFPHNLIGMMGMADNSEFEVMEFRVTKDSAYDKSIPQRLSEVTPINTDGAQVQRITLGMRRMVFTINGETWEDGYANPQDINNPKVLFEQNNGDVVILEYVNNTGTYHPMHIHGFQFQVLERSLGPLGATDLGWKDTVIVAPMETVRIAVDMSHPYNEHQIYLLHCHILEHHDEGMMVNYRVNA
notes: as for B1
For the protein B11, under setting [1], the Km was 3800 ± 600 µM and the kcat is 133 ± 20 s⁻¹.
